Results taken from patent US20260035431A1 (CAVALRY BIOSCIENCES, published 2026).
Changes are numbered by the printed parent chain. Names and notes keep the numbering of the source.

B1: IGF-1 Des1-3 (SEQ ID NO: 8) as tested in Example 1 (ligand)
chain: MRAAAPAVAATLCGAELVDALQFVCGDRGFYFNKPTGYGSSSRRAPQTGIVDECCFRSCDLRRLEMYCAPLKPAKSA
B2: E3R-F49L-D12A (ligand)
chain: GPRTLCGAELVAALQFVCGDRGFYFNKPTGYGSSSRRAPQTGIVDECCLRSCDLRRLEMYCAPLKPAKSA
B3: E3R-F49L-L54A (ligand)
chain: B2 chain with A12D, L54A
B4: E3R-F49L-D12A-L54A (ligand)
chain: B2 chain with L54A
B5: IGF-1 Des1-3 R37X (ligand)
chain: TLCGAELVDALQFVCGDRGFYFNKPTGYGSSSRAPQTGIVDECCFRSCDLRRLEMYCAPLKPAKSA

Experiments:
Test in all cases: cell-based or functional assay
[1] = target: T1, IGF1 receptor (IGF1R) on DU145 cells or immortalized human meibomian gland epithelial cells (human, UniProt P08069 31-1367)
[2] = target: T1, IGF1 receptor (IGF1R) on DU145 cells or …; remark: listed apart in the source
IGFBP2 = target: T2, IGFBP2 (UniProt P18065 37-325, limits assumed)
T2 sequence (looked up): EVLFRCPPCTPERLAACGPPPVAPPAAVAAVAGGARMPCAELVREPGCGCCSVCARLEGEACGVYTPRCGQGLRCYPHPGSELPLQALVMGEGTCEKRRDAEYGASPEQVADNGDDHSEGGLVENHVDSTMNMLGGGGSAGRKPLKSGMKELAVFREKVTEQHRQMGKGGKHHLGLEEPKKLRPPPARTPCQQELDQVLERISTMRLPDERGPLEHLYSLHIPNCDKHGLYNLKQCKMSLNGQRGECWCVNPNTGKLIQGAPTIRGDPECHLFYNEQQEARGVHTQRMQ

IGFBP3 = IGFBP3 (UniProt P17936 28-291)
Sequence of IGFBP3 (P17936 28-291 limits assumed): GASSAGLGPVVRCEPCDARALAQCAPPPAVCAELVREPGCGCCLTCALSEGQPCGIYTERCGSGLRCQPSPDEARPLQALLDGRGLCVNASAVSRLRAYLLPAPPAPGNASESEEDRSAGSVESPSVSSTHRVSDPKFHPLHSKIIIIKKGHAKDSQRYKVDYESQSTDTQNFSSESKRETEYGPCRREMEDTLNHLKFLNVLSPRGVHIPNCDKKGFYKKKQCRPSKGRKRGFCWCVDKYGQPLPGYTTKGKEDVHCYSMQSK

T1 sequence (P08069 31-1367): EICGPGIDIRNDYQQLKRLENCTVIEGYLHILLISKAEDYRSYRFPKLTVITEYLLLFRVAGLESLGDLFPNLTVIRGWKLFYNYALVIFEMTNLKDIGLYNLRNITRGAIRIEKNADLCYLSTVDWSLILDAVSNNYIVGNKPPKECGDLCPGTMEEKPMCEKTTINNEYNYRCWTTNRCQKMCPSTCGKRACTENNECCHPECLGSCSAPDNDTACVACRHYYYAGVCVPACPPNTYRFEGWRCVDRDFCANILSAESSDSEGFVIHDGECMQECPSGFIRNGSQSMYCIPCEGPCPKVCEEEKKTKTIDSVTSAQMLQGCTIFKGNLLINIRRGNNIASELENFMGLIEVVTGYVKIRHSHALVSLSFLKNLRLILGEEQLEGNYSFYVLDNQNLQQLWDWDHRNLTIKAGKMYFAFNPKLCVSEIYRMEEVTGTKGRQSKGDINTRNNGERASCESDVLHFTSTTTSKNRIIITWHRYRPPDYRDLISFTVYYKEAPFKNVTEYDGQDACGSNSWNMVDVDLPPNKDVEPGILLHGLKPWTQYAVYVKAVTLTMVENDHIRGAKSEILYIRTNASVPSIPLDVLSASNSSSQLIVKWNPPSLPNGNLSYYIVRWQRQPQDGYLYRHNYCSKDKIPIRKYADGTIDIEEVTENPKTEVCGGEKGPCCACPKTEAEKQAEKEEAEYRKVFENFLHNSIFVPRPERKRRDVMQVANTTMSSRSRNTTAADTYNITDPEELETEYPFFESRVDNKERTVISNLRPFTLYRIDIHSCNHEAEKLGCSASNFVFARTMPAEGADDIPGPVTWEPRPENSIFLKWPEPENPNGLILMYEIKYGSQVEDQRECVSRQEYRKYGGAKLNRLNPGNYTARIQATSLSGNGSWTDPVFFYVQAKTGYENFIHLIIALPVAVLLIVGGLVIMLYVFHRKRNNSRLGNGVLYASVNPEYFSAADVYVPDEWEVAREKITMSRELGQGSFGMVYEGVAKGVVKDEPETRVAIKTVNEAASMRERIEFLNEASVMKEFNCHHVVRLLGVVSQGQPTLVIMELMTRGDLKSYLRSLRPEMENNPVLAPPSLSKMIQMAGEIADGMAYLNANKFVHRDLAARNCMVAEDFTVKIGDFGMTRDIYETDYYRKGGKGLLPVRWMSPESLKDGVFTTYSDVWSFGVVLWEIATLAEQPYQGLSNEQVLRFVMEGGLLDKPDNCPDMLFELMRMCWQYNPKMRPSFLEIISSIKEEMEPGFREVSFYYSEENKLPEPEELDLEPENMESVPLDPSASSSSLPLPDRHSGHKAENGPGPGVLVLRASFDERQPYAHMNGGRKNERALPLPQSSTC

| Binder | EC50, AKT S473 phosphorylation in DU145 cells [1] [nM] | EC50 (nM), P-AKT in DU145 cells [2] [nM] | % Activity compared to no IGFBP, 4x BP2 (IGFBP2) [%] | % Activity compared to no IGFBP, 4x BP3 (IGFBP3) [%] |
| --- | --- | --- | --- | --- |
| B1 | 2.3 |  |  |  |
| B2 |  | 17.7 | 357 | 342 |
| B3 |  | 11.4 | 175 | 239 |
| B4 |  | 68.1 | 456 | 344 |
| B5 | 4.1 |  |  |  |
